Test results reported in patent US11890352B2, “Plectin-targeted liposomes/PARP inhibitor in the treatment of cancer” (University of Virginia Patent Foundation, priority 2018, dated 2024).
Values belong to the molecule of their own block, whether it stands above or below them. Where no end group is shown, it is not given here. Side-chain parts run from the residue outwards. The star is where a group is joined. DSPE = CCCCCCCCCCCCCCCCCC(=O)OC[C@H](COP(=O)(O)OCCN*)OC(=O)CCCCCCCCCCCCCCCCC; FAM = 5(6)-carboxyfluorescein

How the values were obtained:
[1] = cited from earlier work
pancreatic cancer = details: clinical study; cited from earlier work
[2] = unlabeled liposomes; cited from earlier work
[3] = molecular target: T1, cell surface plectin on ovarian cancer cells (SKOV3, OVCAR8) (human, UniProt Q15149 1-4684); assay: cell binding assay on FT132 cells (healthy fallopian tube cells), DiR fluorescence at 780 nm, 1 h at 37 C; fit of the SPECIFIC curve; no unit beside the number, concentration axis in nM
T1 construct: whole, on cells; Endogenous plectin mislocalized to the cell surface; also called Plectin-1
Method: (§1) FT 132, SKOV3 and OVCAR8 cells were plated in triplicate in a 96 well black plate at a concentration of 5000 cells per well. After 48 h, liposomes at concentrations ranging from […] were incubated with the three cell lines after washing the wells with PBS buffer for 1 h at 37° C. The cells were later washed with PBS and liposomal DiR intensity was measured using a fluorescent plate reader (FLUOstar omega, BMG Labtech Inc. Cary, NC). PTP liposomal binding to the three cell lines was compared with liposomes containing no peptide (background binding) and with NCP (non-specific binding). Background binding by the no peptide liposomes was subtracted from both the non-specific (NCP) and PTP liposomes. To obtain specific binding of PTP liposomes, we subtracted non-specific (NCP) binding from the total binding by the PTP liposomes.
(§2) Figure 2B: Figure 3A: FIGS. 3A-C. PTP liposomes bind to SKOV3 and OVCAR8 cells. Cell binding assay (ELISA) was carried out to assess PTP liposome association to cell surface plectin on SKOV3 and OVCAR8 cells. Liposomes (No Pep, NCP and PTP) at varying concentrations were incubated with FT132, SKOV3 and OVCAR8 cells for 1 h at 37° C. […] NCP binding was subtracted from PTP liposomes to determine specific binding of PTP liposomes to A) FT132, B) SKOV3 and C) OVCAR8 cells for 1 h at 37° C. followed by quantification of DiR using fluorescent plate reader.

[4] = molecular target: T1, cell surface plectin on ovarian cancer …; assay: cell binding assay on SKOV3 cells; DiR fluorescence; NCP and no-peptide liposome binding subtracted; SKOV3 cells
Method: as §1, §2

[5] = molecular target: T1, cell surface plectin on ovarian cancer …; assay: cell binding assay on OVCAR8 cells; DiR fluorescence; NCP and no-peptide liposome binding subtracted; OVCAR8 cells
Method: as §1, §2

[6] = molecular target: T1, cell surface plectin on ovarian cancer …; assay: cell binding assay on FT132 cells (healthy fallopian tube cells), DiR fluorescence at 780 nm, 1 h at 37 C
Method: as §1, §2

[7] = molecular target: T2, recombinant his-tagged C-terminus fragment of plectin (4379-4684 aa) (human, UniProt Q15149 4379-4684); assay: BLI (ForteBio Octet), his-tagged plectin C-terminus fragment loaded on anti-His sensors, liposomes in solution
T2 construct: range 4379-4684; also called his-tagged plectin fragment; c-terminus fragment of plectin (4379-4384 aa); not shown: his tag
T2 sequence (looked up): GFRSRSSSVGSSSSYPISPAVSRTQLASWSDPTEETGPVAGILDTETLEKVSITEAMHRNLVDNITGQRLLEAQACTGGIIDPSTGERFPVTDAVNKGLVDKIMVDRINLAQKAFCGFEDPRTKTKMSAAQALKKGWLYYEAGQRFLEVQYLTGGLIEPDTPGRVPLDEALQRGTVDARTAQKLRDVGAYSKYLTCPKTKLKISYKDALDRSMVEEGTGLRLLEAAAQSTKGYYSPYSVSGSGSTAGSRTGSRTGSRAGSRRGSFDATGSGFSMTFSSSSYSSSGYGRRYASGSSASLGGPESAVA
Method: Biolayer Interferometry (BLI) to Study PTP-Liposomes Binding to C-Terminus Fragment of Plectin Biolayer interferometry (BLI) was performed using ForteBio octect Red 96 system (ForteBio, Menlo Park, CA), we used recombinant C-terminus fragment of plectin (4379-4684 aa). All BLI assays were performed in black 96 well plates (Nunc F96 Micro Well plates, Thermo Fisher, Waltham, MA). The total working volume for samples or buffer was 0.2 mL per well and the rpm setting for each equilibration and loading steps was set at 1000 rpm. The association and dissociation step with C-terminus fragment of plectin and peptide-liposomes was carried out at 600 rpm. Prior to each assay, anti-his biosensor tips were pre-wetted in 0.2 mL PBS for at least 10 min followed by equilibrium with PBS for 100 seconds. Anti-his biosensors were then non-covalently loaded with his-tagged C-terminus fragment ([…]) (100 sec). Subsequently, association with No peptide, NCP (Negative Control Peptide) and PTP liposomes (40 mM) (300 sec) was be carried out. Finally, the dissociation was monitored in PBS for 600 sec.
Figure 2A: FIGS. 2A-B described plectin-targeted peptide (PTP) liposomes binding to Plectin. A) PTP peptide was conjugated to DSPE-PEG-MALEIMIDE via the thiol present on the C-terminus of the peptide. […]

T1 sequence (Q15149 whole entry): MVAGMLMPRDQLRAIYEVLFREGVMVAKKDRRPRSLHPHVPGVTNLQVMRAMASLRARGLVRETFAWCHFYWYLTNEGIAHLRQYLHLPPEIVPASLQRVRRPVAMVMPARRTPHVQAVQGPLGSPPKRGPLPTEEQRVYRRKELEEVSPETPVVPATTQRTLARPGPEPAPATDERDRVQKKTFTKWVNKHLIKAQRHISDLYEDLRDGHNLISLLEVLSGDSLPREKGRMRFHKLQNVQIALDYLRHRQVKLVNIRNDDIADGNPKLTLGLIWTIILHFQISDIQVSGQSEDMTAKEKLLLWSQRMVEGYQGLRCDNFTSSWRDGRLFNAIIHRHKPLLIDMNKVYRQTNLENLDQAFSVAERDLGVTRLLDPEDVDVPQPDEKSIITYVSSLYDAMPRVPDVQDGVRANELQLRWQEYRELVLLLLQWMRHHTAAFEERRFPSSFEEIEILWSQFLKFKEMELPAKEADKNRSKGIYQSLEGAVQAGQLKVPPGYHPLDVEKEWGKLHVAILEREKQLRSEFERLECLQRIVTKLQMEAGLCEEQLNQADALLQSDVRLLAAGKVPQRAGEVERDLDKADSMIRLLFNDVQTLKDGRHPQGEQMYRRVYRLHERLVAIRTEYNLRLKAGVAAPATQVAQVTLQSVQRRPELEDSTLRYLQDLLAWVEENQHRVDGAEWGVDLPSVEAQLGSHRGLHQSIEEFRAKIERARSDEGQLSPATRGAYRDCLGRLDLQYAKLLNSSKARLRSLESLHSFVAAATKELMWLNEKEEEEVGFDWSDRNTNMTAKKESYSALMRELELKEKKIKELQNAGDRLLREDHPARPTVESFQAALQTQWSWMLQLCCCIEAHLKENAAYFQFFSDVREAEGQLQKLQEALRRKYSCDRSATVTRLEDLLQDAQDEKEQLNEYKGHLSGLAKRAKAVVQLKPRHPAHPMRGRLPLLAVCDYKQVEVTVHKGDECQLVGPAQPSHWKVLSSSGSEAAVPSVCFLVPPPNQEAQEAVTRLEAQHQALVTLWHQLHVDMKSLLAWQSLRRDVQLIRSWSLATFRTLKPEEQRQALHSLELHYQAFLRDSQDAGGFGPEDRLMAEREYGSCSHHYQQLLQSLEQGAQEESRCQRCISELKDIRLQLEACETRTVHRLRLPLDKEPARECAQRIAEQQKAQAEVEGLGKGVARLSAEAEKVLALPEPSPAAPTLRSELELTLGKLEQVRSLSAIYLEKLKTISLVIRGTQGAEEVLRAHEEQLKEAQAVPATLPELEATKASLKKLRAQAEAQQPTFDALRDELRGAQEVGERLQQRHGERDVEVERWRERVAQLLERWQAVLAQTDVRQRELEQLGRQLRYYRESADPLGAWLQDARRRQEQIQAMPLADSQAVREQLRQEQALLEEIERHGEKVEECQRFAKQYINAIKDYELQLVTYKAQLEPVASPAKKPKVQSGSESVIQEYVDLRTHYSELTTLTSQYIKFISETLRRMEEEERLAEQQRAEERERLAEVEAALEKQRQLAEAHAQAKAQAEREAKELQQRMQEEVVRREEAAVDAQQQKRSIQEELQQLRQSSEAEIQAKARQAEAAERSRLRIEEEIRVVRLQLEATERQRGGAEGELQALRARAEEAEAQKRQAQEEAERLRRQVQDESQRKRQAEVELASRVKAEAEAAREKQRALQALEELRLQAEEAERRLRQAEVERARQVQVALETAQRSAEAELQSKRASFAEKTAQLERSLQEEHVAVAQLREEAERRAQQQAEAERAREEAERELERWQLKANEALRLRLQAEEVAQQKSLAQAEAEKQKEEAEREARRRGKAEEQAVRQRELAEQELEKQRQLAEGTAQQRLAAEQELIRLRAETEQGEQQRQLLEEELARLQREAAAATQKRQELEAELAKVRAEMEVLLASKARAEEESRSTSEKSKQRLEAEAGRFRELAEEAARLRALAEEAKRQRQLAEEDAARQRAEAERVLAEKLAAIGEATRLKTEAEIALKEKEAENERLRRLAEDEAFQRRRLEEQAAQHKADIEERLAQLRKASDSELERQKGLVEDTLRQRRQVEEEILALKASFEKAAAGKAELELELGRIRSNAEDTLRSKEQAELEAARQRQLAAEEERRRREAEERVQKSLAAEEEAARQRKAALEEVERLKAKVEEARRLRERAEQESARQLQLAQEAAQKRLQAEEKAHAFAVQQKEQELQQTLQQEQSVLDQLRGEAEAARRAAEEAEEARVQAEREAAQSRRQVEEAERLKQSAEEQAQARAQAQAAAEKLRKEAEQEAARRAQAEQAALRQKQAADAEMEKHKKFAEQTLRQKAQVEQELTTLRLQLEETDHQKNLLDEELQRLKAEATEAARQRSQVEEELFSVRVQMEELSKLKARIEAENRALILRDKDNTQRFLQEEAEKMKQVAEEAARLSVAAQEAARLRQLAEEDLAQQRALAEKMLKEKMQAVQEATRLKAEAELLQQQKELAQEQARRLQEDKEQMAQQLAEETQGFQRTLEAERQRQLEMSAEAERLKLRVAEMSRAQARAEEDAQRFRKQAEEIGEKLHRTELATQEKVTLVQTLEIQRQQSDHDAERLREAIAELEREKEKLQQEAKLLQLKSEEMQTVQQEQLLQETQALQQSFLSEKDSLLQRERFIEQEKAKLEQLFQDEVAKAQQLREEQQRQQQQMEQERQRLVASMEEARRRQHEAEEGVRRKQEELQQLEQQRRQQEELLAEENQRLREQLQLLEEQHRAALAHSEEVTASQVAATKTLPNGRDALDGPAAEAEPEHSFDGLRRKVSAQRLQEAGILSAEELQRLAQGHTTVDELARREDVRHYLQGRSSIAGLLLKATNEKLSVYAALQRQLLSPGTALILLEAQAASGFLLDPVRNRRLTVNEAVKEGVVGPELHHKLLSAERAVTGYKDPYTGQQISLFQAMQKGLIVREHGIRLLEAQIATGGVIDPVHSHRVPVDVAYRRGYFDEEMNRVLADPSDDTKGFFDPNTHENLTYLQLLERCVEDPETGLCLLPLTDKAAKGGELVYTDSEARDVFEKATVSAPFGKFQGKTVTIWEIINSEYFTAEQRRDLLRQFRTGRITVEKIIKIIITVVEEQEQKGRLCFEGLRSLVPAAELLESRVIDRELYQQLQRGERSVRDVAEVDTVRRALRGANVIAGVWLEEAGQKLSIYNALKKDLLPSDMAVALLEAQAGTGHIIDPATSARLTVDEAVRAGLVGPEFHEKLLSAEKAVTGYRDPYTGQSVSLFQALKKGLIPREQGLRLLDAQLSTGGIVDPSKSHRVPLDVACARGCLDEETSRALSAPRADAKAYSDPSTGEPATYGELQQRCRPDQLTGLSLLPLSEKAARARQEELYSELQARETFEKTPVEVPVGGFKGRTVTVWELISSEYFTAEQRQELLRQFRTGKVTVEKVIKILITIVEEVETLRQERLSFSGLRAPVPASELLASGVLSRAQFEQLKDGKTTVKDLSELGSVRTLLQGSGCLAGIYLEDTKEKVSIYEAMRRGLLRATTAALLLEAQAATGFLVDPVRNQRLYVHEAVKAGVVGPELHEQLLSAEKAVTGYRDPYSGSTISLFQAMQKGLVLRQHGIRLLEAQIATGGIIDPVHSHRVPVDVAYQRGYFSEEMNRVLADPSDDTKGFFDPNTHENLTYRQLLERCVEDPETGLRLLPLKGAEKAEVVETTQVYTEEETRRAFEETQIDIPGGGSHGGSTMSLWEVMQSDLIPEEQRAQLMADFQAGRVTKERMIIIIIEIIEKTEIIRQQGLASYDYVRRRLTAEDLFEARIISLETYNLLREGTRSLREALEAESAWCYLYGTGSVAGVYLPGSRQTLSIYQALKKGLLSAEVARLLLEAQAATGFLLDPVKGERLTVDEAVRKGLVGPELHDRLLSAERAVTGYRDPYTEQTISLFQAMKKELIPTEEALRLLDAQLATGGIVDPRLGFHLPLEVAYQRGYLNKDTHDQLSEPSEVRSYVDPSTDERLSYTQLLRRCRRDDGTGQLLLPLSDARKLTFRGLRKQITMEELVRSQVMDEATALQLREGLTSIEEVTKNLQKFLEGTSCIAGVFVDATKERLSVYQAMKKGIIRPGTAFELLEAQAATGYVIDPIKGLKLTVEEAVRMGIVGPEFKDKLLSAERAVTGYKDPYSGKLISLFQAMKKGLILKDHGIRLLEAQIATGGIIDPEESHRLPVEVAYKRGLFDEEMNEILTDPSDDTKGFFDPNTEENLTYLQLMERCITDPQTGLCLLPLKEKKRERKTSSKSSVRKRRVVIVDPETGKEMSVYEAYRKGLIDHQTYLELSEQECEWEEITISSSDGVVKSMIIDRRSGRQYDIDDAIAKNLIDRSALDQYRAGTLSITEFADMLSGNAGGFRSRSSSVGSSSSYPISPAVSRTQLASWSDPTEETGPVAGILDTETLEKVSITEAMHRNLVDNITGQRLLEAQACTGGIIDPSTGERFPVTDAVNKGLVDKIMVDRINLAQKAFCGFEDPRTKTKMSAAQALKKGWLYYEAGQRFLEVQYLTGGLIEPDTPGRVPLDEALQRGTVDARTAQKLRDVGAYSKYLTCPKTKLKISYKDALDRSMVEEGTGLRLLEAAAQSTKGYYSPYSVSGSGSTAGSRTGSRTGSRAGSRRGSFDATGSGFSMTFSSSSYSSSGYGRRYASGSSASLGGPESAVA

Molecule: O=C(c1cc(Cc2n[nH]c(=O)c3ccccc23)ccc1F)N1CCN(C(=O)C2CC2)CC1 [Olaparib]
patients who developed myelodysplastic syndrome and acute myeloid leukemia [1]: About 2%
patients with adverse side effects (neutropenia, thrombocytopenia) ([1]; doses necessary to achieve PARP inhibition): About 10%

Molecule: CNCc1ccc(-c2[nH]c3cc(F)cc4c3c2CCNC4=O)cc1 [Rucaparib]
patients showing benefit (pancreatic cancer): 36%

Molecule: COc1cccc2c1C(=O)c1c(O)c3c(c(O)c1C2=O)C[C@@](O)(C(=O)CO)C[C@@H]3O[C@H]1C[C@H](N)[C@H](O)[C@H](C)O1 [doxorubicin]
drug loading previously reported [2]: 200 μg drug per mg of lipid

Kd [3]: 0.06 nM
Kd [4]: 0.12 nM
Kd [5]: 0.11 nM
B1: PTP liposomes (Plectin Targeting Peptide KTLLPTPGGSK(FAM)C conjugated to DSPE-PEG3400-Maleimide and displayed on DOPC/cholesterol/DSPE-PEG2000/DiR liposomes) (peptide)
peptide: KTLLPTPGGSK(FAM)C([maleimide-PEG3400-DSPE])-NH2
modifications: also: displayed on liposomes
notes: Tested only as a multivalent display on liposomes (about 110-120 nm), not as free peptide; also called Plectin Targeted Peptide; PTP-PEG3400-DSPE

binding result [6]: no binding (tested: 0.3 nM)
binding result [7]: no binding
B2: NCP liposomes (Negative Control Peptide TALPRLNGGSK(FAM)C conjugated to DSPE-PEG3400-Maleimide and displayed on liposomes) (peptide)
peptide: TALPRLNGGSK(FAM)C([maleimide-PEG3400-DSPE])-NH2
modifications: also: displayed on liposomes
notes: Control peptide, tested only as a display on liposomes
